These results are taken from patent US10562935B2, “Stapled peptides and uses thereof” (London Health Sciences Centre Research Inc., priority 2015, dated 2020).

Where a SMILES comes first, the peptide text is derived from it. Bridges are numbered along the chain shown (N, C = ends). The star is where a group is joined. Biotin = O=C1N[C@H]2[C@H](CS[C@H]2CCCCC(=O)*)N1; AEEA = NCCOCCOCC(=O)O

Assay in one data set: not given
The note with it: biotinylated peptide, HA coated ELISA plate.
“Biotin-AEEA-(cyclo-6,10)-VSKLR[EQLVK]RKQN-NH2 [Compound 287]”: the “peptide concentration required for equivalent interaction with HA” value is 80 ng/mL. For “{Biotin-AEEA}-VSKLRSQLVKRKQN-NH2 [Compound 284]”, the “peptide concentration required for equivalent interaction with HA” value was found to be 10000 ng/mL.

A short description of a further data set: circular dichroism. To be noted: Milli-Q water; pH ns; ns °C; 0.5 mM.
Take `CC(C)[C@H](N)C(=O)N[C@@H](CO)C(=O)N[C@@H](CCCCN)C(=O)N[C@H]1CCC(=O)NCCCC[C@@H](C(=O)N[C@H](C(=O)N[C@@H](CCCCN)C(=O)N[C@@H](CCCNC(=N)N)C(=O)N[C@@H](CCCCN)C(=O)N[C@@H](CCC(N)=O)C(=O)N[C@@H](CC(N)=O)C(N)=O)C(C)C)NC(=O)[C@H](CCC(N)=O)NC(=O)[C@H](CO)NC(=O)[C@H](CCCNC(=N)N)NC1=O` (H-VSKERSQKVKRKQN-NH2; lactam 4-8): the helicity was -2260 MRE222.

Turning to `CC(C)C[C@@H]1NC(=O)[C@H](CCC(N)=O)NC(=O)[C@H](CO)NC(=O)[C@@H](NC(=O)[C@H](CC(C)C)NC(=O)[C@H](CCCCN)NC(=O)[C@H](CO)NC(=O)[C@@H](N)C(C)C)CCC(=O)NCCCC[C@@H](C(=O)N[C@@H](CCCCN)C(=O)N[C@@H](CCCNC(=N)N)C(=O)N[C@@H](CCCCN)C(=O)N[C@@H](CCC(N)=O)C(=O)N[C@@H](CC(N)=O)C(N)=O)NC1=O` (H-VSKLESQLKKRKQN-NH2; lactam 5-9), the helicity is -4400 MRE222.

In the case of `CC(C)C[C@H](NC(=O)[C@H](CCCCN)NC(=O)[C@H](CO)NC(=O)[C@@H](N)C(C)C)C(=O)N[C@@H](CCCNC(=N)N)C(=O)N[C@H]1CCC(=O)NCCCC[C@@H](C(=O)N[C@@H](CCCNC(=N)N)C(=O)N[C@@H](CCCCN)C(=O)N[C@@H](CCC(N)=O)C(=O)N[C@@H](CC(N)=O)C(N)=O)NC(=O)[C@H](C(C)C)NC(=O)[C@H](CC(C)C)NC(=O)[C@H](CCC(N)=O)NC1=O` (H-VSKLREQLVKRKQN-NH2; lactam 6-10), the helicity is -4400 MRE222. The same measure, in the same setting: with `CC(C)C[C@H](NC(=O)[C@H](CCCCN)NC(=O)[C@H](CO)NC(=O)[C@@H](N)C(C)C)C(=O)N[C@@H](CCCNC(=N)N)C(=O)N[C@@H](CO)C(=O)N[C@H]1CCC(=O)NCCCC[C@@H](C(=O)N[C@@H](CCCCN)C(=O)N[C@@H](CCC(N)=O)C(=O)N[C@@H](CC(N)=O)C(N)=O)NC(=O)[C@H](CCCCN)NC(=O)[C@H](C(C)C)NC(=O)[C@H](CC(C)C)NC1=O` (H-VSKLRSELVKKKQN-NH2; lactam 7-11) the figure was -1570 MRE222.

Still in this data set, the particulars now being: water (methods paragraph says 0.1 M phosphate; tables say water); pH ns; 20 °C; 0.5 mM.
Take `CC(=O)N[C@H](C(=O)N[C@@H](CO)C(=O)N[C@@H](CCCCN)C(=O)N[C@@H](CC(C)C)C(=O)N[C@H]1CCC(=O)NCCCC[C@@H](C(=O)N[C@@H](CCCCN)C(=O)N[C@@H](CCCNC(=N)N)C(=O)N[C@@H](CCCCN)C(=O)N[C@@H](CCC(N)=O)C(=O)N[C@@H](CC(N)=O)C(N)=O)NC(=O)[C@H](CC(C)C)NC(=O)[C@H](CCC(N)=O)NC(=O)[C@H](CO)NC1=O)C(C)C` (Ac-VSKLESQLKKRKQN-NH2; lactam 5-9): the helicity was -6450 MRE222.

As for `CC(=O)N[C@H](C(=O)N[C@@H](CO)C(=O)N[C@@H](CCCCN)C(=O)N[C@@H](CC(C)C)C(=O)N[C@H]1CCCCNC(=O)CC[C@@H](C(=O)N[C@@H](CCCCN)C(=O)N[C@@H](CCCNC(=N)N)C(=O)N[C@@H](CCCCN)C(=O)N[C@@H](CCC(N)=O)C(=O)N[C@@H](CC(N)=O)C(N)=O)NC(=O)[C@H](CC(C)C)NC(=O)[C@H](CCC(N)=O)NC(=O)[C@H](CO)NC1=O)C(C)C` (Ac-VSKLKSQLEKRKQN-NH2; lactam 5-9), the helicity is -974 MRE222. In turn, `CC(=O)N[C@H](C(=O)N[C@@H](CO)C(=O)N[C@@H](CCCCN)C(=O)N[C@@H](CC(C)C)C(=O)N[C@@H](CCCNC(=N)N)C(=O)N[C@H]1CCC(=O)NCCCC[C@@H](C(=O)N[C@@H](CCCNC(=N)N)C(=O)N[C@@H](CCCCN)C(=O)N[C@@H](CCC(N)=O)C(=O)N[C@@H](CC(N)=O)C(N)=O)NC(=O)[C@H](C(C)C)NC(=O)[C@H](CC(C)C)NC(=O)[C@H](CCC(N)=O)NC1=O)C(C)C` (Ac-VSKLREQLVKRKQN-NH2; lactam 6-10) came in with a helicity of -4850 MRE222. Compound `CC(=O)N[C@H](C(=O)N[C@@H](CO)C(=O)N[C@@H](CCCCN)C(=O)N[C@@H](CC(C)C)C(=O)N[C@@H](CCCNC(=N)N)C(=O)N[C@H]1CCCCNC(=O)CC[C@@H](C(=O)N[C@@H](CCCNC(=N)N)C(=O)N[C@@H](CCCCN)C(=O)N[C@@H](CCC(N)=O)C(=O)N[C@@H](CC(N)=O)C(N)=O)NC(=O)[C@H](C(C)C)NC(=O)[C@H](CC(C)C)NC(=O)[C@H](CCC(N)=O)NC1=O)C(C)C` (Ac-VSKLRKQLVERKQN-NH2; lactam 6-10) came in with a helicity of -1980 MRE222. Still for that read-out and setting: with Ac-VSKLRSQLVKRKQN-NH2 the figure was -1100 MRE222.
